# Data: publication PMC3365061
# Target: K5,83R-JMD (mouse)
# Assay: co-IP; RFP chimeras immunoprecipitated with rabbit polyclonal anti-RFP on Protein A beads (Figure 2C also with E2 antibody to the E-cadherin cytoplasmic domain) from MDCK extracts, 0.1% Triton X-100 in CSK buffer (50 mM NaCl, 300 mM sucrose, 10 mM Pipes pH 6.8, 3 mM MgCl2), 4°C; stable or transient expression; with or without 10 µM MG-132 for 4 h, 10 mM NEM in the extraction buffer, Src-GFP or Hakai-FLAG expression; blots for p120-catenin and tubulin
substance,measurement,value
p120-catenin (natural protein),"fold amount co-immunoprecipitated, against WT-JMD",10 fold
same,fold increase of the amount co-immunoprecipitated upon proteasome inhibition,0.4 fold
